Test results: patent US12162911B2, “Pulmonary administration of pyocins for treating bacterial respiratory infections” (priority 2014, dated 2024)

Assays:
P. aeruginosa E2 = assay: Mouse model of acute lung infection, P. aeruginosa E2; format: in vivo, Pseudomonas aeruginosa
Experimental: Model of acute lung infection. Female C57/BL6 mice were inoculated intranasally with 25 μl of bacterial culture containing approximately 10^7 CFU of the selected P. aeruginosa strain^36. Antibiotic treatments were administered at either 6 h pre-infection or 1 h post-infection and were administered only once. Pyocins or tobramycin dissolved in PBS were administered via intranasal administration as described above. Two different end-points were used in these experiments. In order to determine a reduction in the bacterial load of the lungs compared to the untreated controls, all mice in the experiment were culled by carbon dioxide asphyxiation at the same time; 4-6 h post infection. To determine if mice could survive infection after pyocin or tobramycin treatment, mice were monitored closely, culled by carbon dioxide asphyxiation when required as determined by a scoring system or culled at the pre-determined 24 h time point. Uninfected mice, treated with pyocins, were used as controls in the first series of experiments in order to ensure no adverse effects from pyocin treatment. These controls were stopped in later experiments in order to reduce the number of animals used, once it was clear that the pyocins were not harmful. For CFU determination, lungs were removed aseptically and kept on ice in 750 μl of PBS until homogenised. Serial 10-fold dilutions of the homogenised lung were plated on Pseudomonas selective agar (20 g peptone, 1.5 g K2HPO4, 1.5 g MgSO4·7H2O, 10 ml glycerol, 15 g agar, 0.025 g Irgasan per litre) and incubated at 37° C. for 24 h and then room temperature for 24 h before the colonies were counted.
Since strains of P. aeruginosa are phenotypically diverse, we tested the efficacy of the pyocins against three additional isolates: P. aeruginosa P17 and P. aeruginosa P5 (mucoid), both from cystic fibrosis patients and P. aeruginosa E2, an environmental isolate. Pyocin S2 was not active against P. aeruginosa P5 or P. aeruginosa E2 in vitro therefore was not used to treat these strains in vivo and similarly pyocin L1 was not used against P. aeruginosa P17. […] Lung homogenates from P. aeruginosa E2-infected AP41-treated mice contained high levels of viable bacteria, reduced only 10-fold relative to control mice (Table 1). […] Thus, pyocins show strong efficacy against diverse strains of P. aeruginosa with pyocin S5 treatment displaying the largest effect on reducing bacterial load.

[1] = Pyocin S5-specific antibody titers by indirect ELISA
Experimental: Determination of pyocin S5-specific antibody titers by indirect ELISA. For analysis of IgG and IgA responses, blood was obtained by cardiac puncture immediately after carbon dioxide asphyxiation. Serum was obtained by centrifugation of samples at 13,500 g for 10 min followed by collection of the supernatant. Serum was stored at −80° C. Greiner 96-well plates (MaxiSorp) were coated with purified recombinant pyocin S5 (7.5 μg ml^−1, 50 μl/well) protein in PBS overnight at 4° C. The plates were washed three times with phosphate buffered saline+0.05% TWEEN20 (PBST) and then blocked for 1 h at 37° C. with 150 μl of blocking buffer (1% bovine serum albumin (BSA) in PBS). After washing, five-fold serially diluted samples were added, starting at a dilution of 1/50 in blocking buffer, and incubated for 2 h at 37° C. Serum from mice given pyocin S5+Freunds complete/incomplete subcutaneously three times over four weeks was used as a positive control and uncoated wells were used as negative controls. Serum from individual mice were analysed and replicate samples were carried out on separate days. After washing with PBST, 50 μl of anti-mouse IgG (Fc specific)-peroxidase antibody ((1/1000 dilution) Sigma, UK) or anti-mouse IgA (α-chain specific)-peroxidase antibody ((1/250 dilution) Sigma, UK) in PBST/0.1% BSA was added and plates were incubated for 1 h at 37° C. Plates were developed using […] OPD (o-Phenylenediamine dihydrochloride) tablets (Sigma, UK) and reactions were stopped using 3 M HCl. Optical densities (ODs) were read at 450 nm using a FLUOstar OPTIMA plate reader (BMG labtech, Germany).

[2] = mice repeatedly exposed I.N., 75 μg/dose three times (FIG. 8b)
[3] = mice repeatedly exposed I.P., 75 μg/dose three times (FIG. 8d)

B1: Pyocin S5: S-type pyocin, SEQ ID NO: 13; binds FptA, pore-forming effector (protein, listed as Pseudomonas aeruginosa)
chain: MSNDNEVPGSMVIVAQGPDDQYAYEVPPIDSAAVAGNMFGDLIQREIYLQKNIYYPVRSIFEQGTKEKKEINKKVSDQVDGLLKQITQGKREATRQERVDVMSAVLHKMESDLEGYKKTFTKGPFIDYEKQSSLSIYEAWVKIWEKNSWEERKKYPFQQLVRDELERAVAYYKQDSLSEAVKVLRQELNKQKALKEKEDLSQLERDYRTRKANLEMKVQSELDQAGSALPPLVSPTPEQWLERATRLVTQAIADKKQLQTTNNTLIKNSPTPLEKQKAIYNGELLVDEIASLQARLVKLNAETTRRRTEAERKAAEEQALQDAIKFTADFYKEVTEKFGARTSEMARQLAEGARGKNIRSSAEAIKSFEKHKDALNKKLSLKDRQAIAKAFDSLDKQMMAKSLEKFSKGFGVVGKAIDAASLYQEFKISTETGDWKPFFVKIETLAAGAAASWLVGIAFATATATPIGILGFALVMAVTGAMIDEDLLEKANNLVISI
survival / protection (P. aeruginosa E2; pyocin 3 mg ml^−1, endpoint 24 h, infected controls culled at 5.5 h): survived until the 24 h endpoint
bacterial count in lung, E2 (P. aeruginosa E2; pyocin 3 mg ml^−1, treated mice survived to 24 h, no treatment 1.5 × 10^5 CFU/lung): No colonies
pyocin-S5 specific IgA in serum [1, 2]: no IgA antibodies detected
pyocin-S5 specific IgG, fold less than the Freunds complete/incomplete control group [1, 2]: 10 fold
pyocin S5-specific IgA in serum [1, 3]: no pyocin S5-specific IgA was detected
pyocin S5-specific IgG, fold less than the Freunds complete/incomplete control group [1, 3]: 1000 fold
